This test deals with CdiA-CT^EC536_H178A (catalytically inactive C-terminal toxin domain of CdiA from uropathogenic E. coli 536) (uropathogenic Escherichia coli 536). The test can be described thus: cryo-EM structure.

“And” between values parts separate entries of the source, which are not always exact repeats. Equal values may be shown once.

B1: O-acetylserine sulfhydrylase A (CysK) (enzyme)
chain: MSKIFEDNSLTIGHTPLVRLNRIGNGRILAKVESRNPSFSVKCRIGANMIWDAEKRGVLKPGVELVEPTSGNTGIALAYVAAARGYKLTLTMPETMSIERRKLLKALGANLVLTEGAKGMKGAIQKAEEIVASNPEKYLLLQQFSNPANPEIHEKTTGPEIWEDTDGQVDVFIAGVGTGGTLTGVSRYIKGTKGKTDLISVAVEPTDSPVIAQALAGEEIKPGPHKIQGIGAGFIPANLDLKLVDKVIGITNEEAISTARRLMEEEGILAGISSGAAVAAALKLQEDESFTNKNIVVILPSSGERYLSTALFADLFTEKELQQ
modifications: PLP (N'-pyridoxyl-lysine-5'-monophosphate); position not given
On to B1, for which the stoichiometry N (CysK per CdiA-CT) is 2 and 1.

The values are drawn from article PMC11724271.
